The results in this text go back to patent US20220403002A1.

In the assay the target is scFv of the anti-GLA antibody, forcibly expressed on M1 cells (Transfectant). Description: cell-based or functional assay.
Chain of scFv of the anti-GLA antibody, forcibly expressed on M1 cells (Transfectant) (scFv, as listed by the source): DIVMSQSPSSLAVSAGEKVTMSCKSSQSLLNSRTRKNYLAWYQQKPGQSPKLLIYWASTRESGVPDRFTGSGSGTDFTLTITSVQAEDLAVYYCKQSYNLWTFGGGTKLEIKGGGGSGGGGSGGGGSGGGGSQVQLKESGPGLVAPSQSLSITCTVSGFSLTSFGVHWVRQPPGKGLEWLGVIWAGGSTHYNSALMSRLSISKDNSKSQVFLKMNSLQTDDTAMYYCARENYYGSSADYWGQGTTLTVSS

For “CD19 CAR expressed on human T cells (CD19 CAR-T cells)”, the cell viability rate of M1 cells (in vitro killing assay, control co-culture) worked out at 66.9%.
